The source of these data is patent US20080181886A1, “Polypeptides That Bind Baff And/Or April” (Genentech, Inc., priority 2004, published 2008).

A value given as a limit tells only on which side of the number the result lay.

Assay [1] has as its target human BAFF (human) (UniProt Q9Y275). The assay can be described thus: shotgun scan, phage display.
The target is the same in assay [2]. As to the kind of experiment: NNS library, phage display.
In assay [3] the target is Murine APRIL (mouse) (UniProt Q9D777). As to the kind of experiment: shotgun scan, phage display.
Sequence of Murine APRIL (mouse) (Q9D777 105-241 limits assumed): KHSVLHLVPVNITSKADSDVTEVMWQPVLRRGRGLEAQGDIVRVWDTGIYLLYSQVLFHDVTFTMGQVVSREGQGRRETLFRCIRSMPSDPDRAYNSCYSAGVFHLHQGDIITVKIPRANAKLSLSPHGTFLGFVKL
The target is the same in assay [4]. The assay can be described thus: NNS library, phage display.

Sequence of human BAFF (human) (Q9Y275 82-285 limits assumed): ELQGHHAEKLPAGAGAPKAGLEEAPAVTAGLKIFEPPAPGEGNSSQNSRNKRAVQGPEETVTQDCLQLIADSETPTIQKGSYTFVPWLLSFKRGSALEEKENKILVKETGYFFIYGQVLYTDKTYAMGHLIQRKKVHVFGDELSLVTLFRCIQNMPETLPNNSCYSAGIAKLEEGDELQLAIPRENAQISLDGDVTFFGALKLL

B1: TACI_d2 Q95P (receptor)
chain: SLSCRKEQGKFYDHLLRDCISCASICGPHPKQCAYFCENKLR
In the assay with human BAFF (human) [1], B1 yielded a F (BAFF) above 54.

B2: TACI_d2 R84P (receptor)
chain: SLSCRKEQGKFYDHLLPDCISCASICGQHPKQCAYFCENKLR
In the assay with human BAFF (human) [1], B2 had a F (BAFF) above 52. Besides, the F' BAFF in the assay with human BAFF (human) [2] came to 0.

B3: TACI_d2 Y79S (receptor)
chain: SLSCRKEQGKFSDHLLRDCISCASICGQHPKQCAYFCENKLR
B3: the F (BAFF) with human BAFF (human) [1] is above 36. Moreover, the F' BAFF in the assay with human BAFF (human) [2] was 0.

B4: TACI_d2 H96P (receptor)
chain: SLSCRKEQGKFYDHLLRDCISCASICGQPPKQCAYFCENKLR
In the assay with human BAFF (human) [1], B4 displayed a F (BAFF) of 20. Further, the F (APRIL) with Murine APRIL (mouse) [3] was found to be 48.

B5: TACI_d2 Y79D (receptor)
chain: SLSCRKEQGKFDDHLLRDCISCASICGQHPKQCAYFCENKLR
In the assay with human BAFF (human) [1], B5 came in with a F (BAFF) above 9.5. In the assay with Murine APRIL (mouse) [3], the F (APRIL) was above 8.2. In the assay with human BAFF (human) [2], this molecule gave a F' BAFF of 0. This molecule also registered a F' APRIL with Murine APRIL (mouse) [4] of 0.

B6: TACI_d2 H96D (receptor)
chain: SLSCRKEQGKFYDHLLRDCISCASICGQDPKQCAYFCENKLR
Consider B6, for which the F (BAFF) with human BAFF (human) [1] was above 29.

B7: TACI_d2 L83P (receptor)
chain: SLSCRKEQGKFYDHLPRDCISCASICGQHPKQCAYFCENKLR
For B7, in the assay with human BAFF (human) [1], the F (BAFF) turned out to be 15.

B8: TACI_d2 R84G (receptor)
chain: SLSCRKEQGKFYDHLLGDCISCASICGQHPKQCAYFCENKLR
On to B8, for which the F (BAFF) with human BAFF (human) [1] is 13. Besides, the F' BAFF with human BAFF (human) [2] is 0.
